The chains are these.
T1: Cyno IL-34 (cyno (cynomolgus monkey), UniProt G7Q1L3 21-242)
T1 sequence: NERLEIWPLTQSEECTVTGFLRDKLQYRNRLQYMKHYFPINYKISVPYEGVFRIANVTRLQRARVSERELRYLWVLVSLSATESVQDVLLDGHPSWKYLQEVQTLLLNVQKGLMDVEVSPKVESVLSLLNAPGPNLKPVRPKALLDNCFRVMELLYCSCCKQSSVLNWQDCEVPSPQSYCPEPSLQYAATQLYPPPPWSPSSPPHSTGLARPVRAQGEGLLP

T2: Mouse IL-34 (mouse, UniProt Q8R1R4 21-235)
T2 construct: NCBI NP_001128572.1 is printed; also called Murine IL-34
T2 sequence: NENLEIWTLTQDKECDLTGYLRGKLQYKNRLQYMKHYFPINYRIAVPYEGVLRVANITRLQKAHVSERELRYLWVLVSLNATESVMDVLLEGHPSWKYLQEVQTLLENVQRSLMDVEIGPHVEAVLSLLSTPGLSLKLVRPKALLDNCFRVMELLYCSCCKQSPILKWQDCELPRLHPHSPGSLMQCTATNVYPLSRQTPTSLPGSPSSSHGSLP

B1: Antibody 1 (antibody, human IgG4 S228P, kappa, F234A L235A, V domains shown)
VH: EVQLLESGGGLVQPGGSLRLSCAASGFTFSSYATSWVRQAPGKGLEWVSAISHSGRSTYYADSVKGRFTISRDNSKNTLYLQMNSLRAEDTAVYYCARGRSSLDTWGQGTLVTVSS
VL: EIVLTQSPGTLSLSPGERATLSCRASQSISSAYLAWYQQKPGQAPRLLIYASSIRPTGIPDRFSGSGSGTDFTLTISPLEPEDFAVYYCSQYGDSLSFGGGTKVEIKR
notes: Human anti-human IL-34 antibody with a modified IgG4 (IgG4PAA) heavy chain and kappa light chain; also called Exemplified Antibody 1
B2: Antibody 3 (antibody, mouse IgG1, kappa, V domains shown)
VH: B1 VH with S31Y, T34M, S54R, R56G, Y59L, T105G, L111M
VL: B1 VL with T10I, T20S, Q27T, I29V, I54H, T57L, P78R, S90Q
notes: Antibody optimised against mouse IL-34; The printed constant regions look murine, and a mIgG1 control is used in vivo; also called Exemplified Antibody 3
B3: Antibody 2 (antibody, human IgG4 S228P, kappa, F234A L235A, V domains shown)
VH: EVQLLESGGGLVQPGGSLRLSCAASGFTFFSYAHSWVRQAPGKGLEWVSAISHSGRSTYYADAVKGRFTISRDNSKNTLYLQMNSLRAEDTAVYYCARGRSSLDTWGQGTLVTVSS
VL: B1 VL
notes: Shares its light chain with Antibody 1; Modified IgG4 heavy chain; also called Exemplified Antibody 2
B4: mature Human IL-34 (ligand)
chain: NEPLEMWPLTQNEECTVTGFLRDKLQYRSRLQYMKHYFPINYKISVPYEGVFRIANVTRLQRAQVSERELRYLWVLVSLSATESVQDVLLEGHPSWKYLQEVETLLLNVQQGLTDVEVSPKVESVLSLLNAPGPNLKLVRPKALLDNCFRVMELLYCSCCKQSSVLNWQDCEVPSPQSCSPEPSLQYAATQLYPPPPWSPSSPPHSTGSVRPVRAQGEGLLP
notes: if the entry is the precursor, residues 21-242 apply; NCBI NP_689669.2 is printed; also called hIL-34; h IL-34

Test [1] deals with T1, Cyno IL-34. In words: cell-based or functional assay.
Test [2] deals with B4. In words: cell-based or functional assay.
Test [3] concerns the target B4. The test is described as follows: cell-based or functional assay. This is another data set of the same source.
The target of test [4] is T1, Cyno IL-34. The test is described as follows: MSD solution equilibrium titration at 37 C; fixed antibody, cyno IL-34 titrated; mean ± STDEV, n = 5. On the procedure: (§1) Briefly, usually a 2-fold or 3-fold dilution series of human, cyno or mouse IL-34 is prepared from a starting concentration of 40, or 50 or 60 or 80 or 100 or 120 nM to 100 fM; and each series includes an IL-34 blank control. Samples are prepared in 3% (w/v) Blocker A solution (MSD®, #R93AA-1) and a fixed final concentration of 5-50 pM of each exemplified antibody in Table 1 is added to each sample. An antibody only control is included. A volume of 50 μl of each protein-antibody sample is added to individual wells of a 96-well microtiter plate (Greiner, EK-20101). The plate is sealed with optical adhesive film (Thermo Fisher Scientific, #4311971) and incubated at 37° C. for 1-3 days to allow for sample equilibrium. On the day before analysis, each row of a 96-well MSD® Standard plate (MSD®, #L15XA) is coated with 30 μl of the corresponding IL-34 (as used in the titration series) at a concentration of 1 μg/ml in phosphate buffered saline (PBS). […] The plate is washed three more times with PBST followed by the addition of 150 μl/well of 1× Read buffer (MSD®, #R92TC-2). The MSD® Standard plate is read using a MESO Quickplex SQ 120/1300 instrument (Meso Scale Discovery).

The target of test [5] is B4. The test is described as follows: MSD solution equilibrium titration at 37 C; fixed antibody, IL-34 titrated, free antibody captured on IL-34-coated plate; mean ± STDEV, n = 5. On the procedure: as §1
Test [6] has as its target IL-34 (species not stated). The test is described as follows: cell-based or functional assay.
The next test concerns the target T2, Mouse IL-34. The test is described as follows: MSD solution equilibrium titration at 37 C; fixed antibody, mouse IL-34 titrated. On the procedure: as §1
In test [7] the target is T3, Human CSF1R Fc fusion protein (Exemplified compound D) (human, UniProt P07333 20-512, limits assumed).
T3 construct: Made in house and purified by MabSelect SuRe and size exclusion; also called hCSF1R-Fc; Exemplified compound D (hCSF1R-Fc); not shown: Fc part
T3 sequence (P07333 20-512 limits assumed): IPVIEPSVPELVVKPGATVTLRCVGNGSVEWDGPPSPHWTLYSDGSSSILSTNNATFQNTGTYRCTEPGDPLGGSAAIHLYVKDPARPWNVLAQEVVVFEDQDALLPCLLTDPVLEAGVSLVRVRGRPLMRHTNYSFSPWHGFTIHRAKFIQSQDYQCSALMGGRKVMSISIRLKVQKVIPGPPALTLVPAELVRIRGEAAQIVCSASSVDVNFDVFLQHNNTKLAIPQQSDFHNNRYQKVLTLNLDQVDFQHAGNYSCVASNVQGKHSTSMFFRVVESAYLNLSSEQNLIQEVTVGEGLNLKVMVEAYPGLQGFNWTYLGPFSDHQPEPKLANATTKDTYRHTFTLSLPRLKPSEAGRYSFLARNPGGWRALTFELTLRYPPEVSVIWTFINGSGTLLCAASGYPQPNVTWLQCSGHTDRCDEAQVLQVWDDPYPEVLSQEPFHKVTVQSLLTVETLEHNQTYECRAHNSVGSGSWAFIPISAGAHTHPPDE
The test is described as follows: MSD solution equilibrium titration at 37 C; fixed Fc fusion, IL-34 titrated, free protein captured on IL-34-coated plate; mean ± STDEV, n = 5.

Positions count from the first letter of the chain named.

Usually Kd stands for the constant that tells how readily two partners part at equilibrium. A lower Kd goes with higher affinity. As for B1, the “IC50; neutralization of cyno IL-34 induced luciferase reporter activity, hCSF1R 293 SRE cells” value in the test with Cyno IL-34 [1] was determined as 654 pM. Moreover, in the test with mature Human IL-34 [2], the “IC50; neutralization of human IL-34 induced luciferase reporter activity, hCSF1R 293 SRE cells” value stood at 385 pM. For the same molecule, in the test with mature Human IL-34 [3], the “IC50; inhibition of human IL-34 induced CSF1R dimerization, PathHunter eXpress assay” value stood at 226 pM. Moreover, the values for the Kd with Cyno IL-34 [4] and with mature Human IL-34 [5] were 108 pM and 59 pM, respectively.

On to B2, for which the “IC50; inhibition of IL-34 induced ERK phosphorylation in NIH-3T3/CSF1R cells” value in test [6] came to 15700 pM. The Kd in the test with Mouse IL-34 worked out at 16 pM.

As to B3, the Kd is 152 pM with Cyno IL-34 [4] and 54 pM with mature Human IL-34 [5].

The molecule B4 had a Kd in test [7] of 56 pM.

The values above are taken from patent publication US20210363232A1 (Eli Lilly, published 2021).
